Where no end group is shown, it is not given here. [ ]: non-standard residue; d: D form. The star is where a group is joined. pNA = O=[N+]([O-])c1ccc(N*)cc1; AlaP = not defined here; Ahx = NCCCCCC(=O)O; pentyl = CCCCC*
Columns and labels:
Type in all cases: biochemical
Elastase = molecular target: T1, Elastase (Homo sapiens, UniProt P08246); assay: Protease inhibition assay, second order rate constant kobs/[I] (method of Tian and Tsou); conditions: n.s where no significant inhibition
T1 sequence (P08246 30-267): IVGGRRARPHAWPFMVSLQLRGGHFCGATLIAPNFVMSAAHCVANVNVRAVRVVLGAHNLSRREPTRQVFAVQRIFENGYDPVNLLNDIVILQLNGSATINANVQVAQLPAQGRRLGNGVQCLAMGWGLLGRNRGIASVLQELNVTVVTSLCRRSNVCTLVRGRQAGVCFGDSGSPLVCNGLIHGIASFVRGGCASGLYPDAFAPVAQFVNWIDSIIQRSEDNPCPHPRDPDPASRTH
Protocol: (§1) The inactivation of proteases by substrate analog inhibitors in the presence of the substrate by competition for the enzyme-binding site, was measured by the method of Tian and Tsou (17). In this system, product formation in the presence of an irreversible inhibitor approaches an asymptote, as described by
(§2) log([P∞]−[P])=log [P∞]−0.43A[Y]t
(§3) where [P∞] is the concentration of product formed at time approaching infinity, [P] is the concentration of product at time t, [Y] is the inhibitor concentration, and A is the apparent inhibition rate constant in the presence of the substrate. A is given by
(§4) where k+0 is the rate constant for association of the inhibitor with the enzyme, K^−1 is the inverted Michaelis constant, and [S] the substrate concentration. The apparent inhibition rate constant A is the slope of a plot of log([P∞]−[P]) against t, to give the second-order rate constant of inhibition k+0

Proteinase 3 = molecular target: T2, Proteinase 3 (Homo sapiens, UniProt P24158); assay: as above; conditions: for kobs/I range: PR3; for effect of P5 group on kobs/I: ammonium, Trp or Ile at P5
T2 sequence (P24158 28-248): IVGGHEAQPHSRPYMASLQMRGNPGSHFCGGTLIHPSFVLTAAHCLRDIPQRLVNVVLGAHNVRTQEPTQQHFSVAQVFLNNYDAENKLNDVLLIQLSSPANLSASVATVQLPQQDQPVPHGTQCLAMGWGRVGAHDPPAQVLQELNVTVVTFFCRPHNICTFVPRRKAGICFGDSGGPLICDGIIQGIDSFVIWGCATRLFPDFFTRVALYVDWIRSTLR
Protocol: The compounds of the invention are advantageously selective inhibitors of PR3. […] As described under the Examples below (see PR3 inhibition assay), and as is generally known, efficacy of particular inhibitors against a target protease, for example, recombinant human PR3, is determined by combining the target with a substrate (for example Suc-AanV-SBzI), both in the absence of the inhibitor and in the present of different concentrations of such inhibitor to be tested. Typically, the efficacy of irreversible inhibitors are measured in terms of the second order rate constant of inhibition value (11) or kobs/l. Preferred inhibitors of the invention have typically a kobs/I of more than 10 M^−1s^−1, preferably more than 100 M^−1s^−1, and more preferably of more than […].
as §1, §2, §3, §4

HNE = molecular target: T3, HNE (Homo sapiens, UniProt P08246); assay: Hydrolysis of paranitroanilide substrates, kcat/KM
T3 sequence (P08246 30-267): T1 sequence (P08246 30-267)
Protocol: (§5) Then we used the peptidyl sequences DYDA- and PYDA- to construct two paranitroanlide substrates bearing this sequence from P4 to P1. Ac-DYDA-pNA and Ac-PYDA-pNA were assayed with purified PR3 and HNE and the specificity constants kcat/Km were determined. […] We then constructed phosphonate inhibitors with the same peptidyl sequence i.e. Ac-DYDA^P(Oph-p-Cl)2 and Ac-PYDA^P(Oph-p-Cl)2.

wtPR3 = molecular target: T4, wtPR3 (Homo sapiens, UniProt P24158); assay: Hydrolysis of paranitroanilide substrates, kcat/KM
T4 sequence (P24158 28-248): T2 sequence (P24158 28-248)
Protocol: as §5

Ac-Ahx-Pro-Tyr-Asp-Ala^P(O—C6H4-4-Cl)2 ({Ac-Ahx}-PYD[AlaP]; not fully specified (C-terminus); printed as Ac-Ahx-Pro-Tyr-Asp-Ala^P(O—C6H4-4-Cl)2; reading uncertain; also: C-terminal Ala as phosphonate analogue (Ala^P)) [Compound 9]
Elastase kobs/[I] (Elastase): n.s
Proteinase 3 kobs/[I] (Proteinase 3): 2159 ± 235 M⁻¹ s⁻¹
kobs/I range (Proteinase 3): ~10^3 M^−1s^−1

Ac-DYDA-pNA
cleavage by purified HNE (HNE): did not cleave
cleavage by purified PR3 (wtPR3): rapidly cleaved

Ac-Ile-Pro-Tyr-Asp-Ala^P(O—C6H4-4-Cl)2 (Ac-IPYD[AlaP]; not fully specified (C-terminus); printed as Ac-Ile-Pro-Tyr-Asp-Ala^{P}(O—C₆H₄-4-Cl)₂; reading uncertain; also: C-terminal Ala as phosphonate analogue (Ala^P)) [Compound 12]
Elastase kobs/[I] (Elastase): 15.1 ± 1.6 M⁻¹ s⁻¹
Proteinase 3 kobs/[I] (Proteinase 3): 46 ± 0.1 M⁻¹ s⁻¹
effect of P5 group on kobs/I (Proteinase 3): did not significantly increase

Ac-PYDA-pNA
cleavage by purified HNE (HNE): did not cleave
cleavage by purified PR3 (wtPR3): rapidly cleaved

Ac-Pro-Tyr-Phe-Ala^P(O—C6H4-4-Cl)2 (Ac-PYF[AlaP]; not fully specified (C-terminus); printed as Ac-Pro-Tyr-Phe-Ala^{P}(O—C₆H₄-4-Cl)₂; reading uncertain; also: C-terminal Ala as phosphonate analogue (Ala^P)) [Compound 7]
Elastase kobs/[I] (Elastase): n.s
Proteinase 3 kobs/[I] (Proteinase 3): 2.1 ± 0.2 M⁻¹ s⁻¹

Ac-Trp-Pro-Tyr-Asp-Ala^P(O—C6H4-4-Cl)2 (Ac-WPYD[AlaP]; not fully specified (C-terminus); printed as Ac-Trp-Pro-Tyr-Asp-Ala^{P}(O—C₆H₄-4-Cl)₂; reading uncertain; also: C-terminal Ala as phosphonate analogue (Ala^P)) [Compound 11]
Elastase kobs/[I] (Elastase): n.s
Proteinase 3 kobs/[I] (Proteinase 3): 15 ± 0.1 M⁻¹ s⁻¹
effect of P5 group on kobs/I (Proteinase 3): did not significantly increase

Biotin-Asp-Tyr-Asp-Ala^P(O—C6H4-4-Cl)2 [Compound 3]
Elastase kobs/[I] (Elastase): n.s
Proteinase 3 kobs/[I] (Proteinase 3): 18 ± 2.8 M⁻¹ s⁻¹

Biotin-PEG3000-Pro-Tyr-Asp-Ala^P(O—C6H4-4-Cl)2 [Compound 13]
Elastase kobs/[I] (Elastase): 46.5 M⁻¹ s⁻¹
Proteinase 3 kobs/[I] (Proteinase 3): 1163 ± 0.1 M⁻¹ s⁻¹

Biotin-Pro-Tyr-Asp-Avl^P(O—C6H4-4-Cl)2 [Compound 5]
Elastase kobs/[I] (Elastase): n.s
Proteinase 3 kobs/[I] (Proteinase 3): 33360 ± 4150 M⁻¹ s⁻¹

Biotin-Val-Tyr-Asp-Ala^P(O—C6H4-4-Cl)2 [Compound 6]
Elastase kobs/[I] (Elastase): n.s
Proteinase 3 kobs/[I] (Proteinase 3): 17396 ± 835 M⁻¹ s⁻¹

CH3(CH2)4-Pro-Tyr-Asp-Ala^P(O—C6H4-4-Cl)2 (pentyl-PYD[AlaP]; not fully specified (C-terminus); printed as CH3(CH2)4-Pro-Tyr-Asp-Ala^P(O—C6H4-4-Cl)2; reading uncertain; also: C-terminal Ala as phosphonate analogue (Ala^P)) [Compound 8]
Elastase kobs/[I] (Elastase): n.s
Proteinase 3 kobs/[I] (Proteinase 3): 4418 ± 329 M⁻¹ s⁻¹
kobs/I range (Proteinase 3): ~10^3 M^−1s^−1

^+H2N-Pro-Tyr-Asp-Ala^P(O—C6H4-4-Cl)2 (H-PYD[AlaP]; not fully specified (C-terminus); printed as ^+H2N-Pro-Tyr-Asp-Ala^P(O—C6H4-4-Cl)2; reading uncertain; also: C-terminal Ala as phosphonate analogue (Ala^P)) [Compound 10]
Elastase kobs/[I] (Elastase): n.s
Proteinase 3 kobs/[I] (Proteinase 3): 4.7 ± 0.5 M⁻¹ s⁻¹
effect of P5 group on kobs/I (Proteinase 3): did not significantly increase

— patent US20160257710A1, “SELECTIVE INHIBITORS OF PROTEINASE 3” (INSERM (INSTITUT NATIONAL DE LA SANTÉ ET LA RECHERCHE …, priority 2013, published 2016)
